Source: article PMC7696055 (Pharmaceutics, 2020)

How the values were obtained:
[1] = system: A431/CCKBR tumors; details: mouse, in vivo, iv
[2] = cited from earlier work
Excerpt: The radiolabeled PP-F11N is a small molecular weight peptide (2.032 kDa), which can be reabsorbed in the proximal tu ...

Row | Structure (SMILES) | location of radioactive signals in SPECT/CT [1] | radiation dose received by stomach (median) ([2]; MTC patients, highest organ dose) [Gy/GBq] | kidney radiation dose ([2]; six MTC patients)
1 | CCCC[C@H](NC(=O)[C@H](Cc1c[nH]c2ccccc12)NC(=O)CNC(=O)[C@H](Cc1ccc(O)cc1)NC(=O)[C@H](C)NC(=O)[C@@H](CCC(=O)O)NC(=O)[C@@H](CCC(=O)O)NC(=O)[C@@H](CCC(=O)O)NC(=O)[C@@H](CCC(=O)O)NC(=O)[C@@H](CCC(=O)O)NC(=O)[C@@H](CCC(=O)O)NC(=O)CN1CCN(CC(=O)O)CCN(CC(=O)O)CCN(CC(=O)O)CC1)C(=O)N[C@@H](CC(=O)O)C(=O)N[C@@H](Cc1ccccc1)C(N)=O [[^111In]In-PP-F11N, metal not drawn] | only detected in the excretion organs including kidneys and bladder | – | –
2 | CCCC[C@H](NC(=O)[C@H](Cc1c[nH]c2ccccc12)NC(=O)CNC(=O)[C@H](Cc1ccc(O)cc1)NC(=O)[C@H](C)NC(=O)[C@@H](CCC(=O)O)NC(=O)[C@@H](CCC(=O)O)NC(=O)[C@@H](CCC(=O)O)NC(=O)[C@@H](CCC(=O)O)NC(=O)[C@@H](CCC(=O)O)NC(=O)[C@@H](CCC(=O)O)NC(=O)CN1CCN(CC(=O)O)CCN(CC(=O)O)CCN(CC(=O)O)CC1)C(=O)N[C@@H](CC(=O)O)C(=O)N[C@@H](Cc1ccccc1)C(N)=O [[^177Lu]Lu-PP-F11N, metal not drawn] | – | 0.42 | relatively low kidney radiation dose
